Molecular target: T1, SIP2 D1 (Plasmodium falciparum, UniProt C6KSN9 177-235)
T1 sequence: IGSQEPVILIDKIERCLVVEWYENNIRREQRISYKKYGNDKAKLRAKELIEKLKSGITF
Test: gcPBM; about 25 ug protein; PBS, 1% milk, 0.2 mg/ml BSA, salmon testes DNA, 0.03% Triton X-100
Settings: tags: N-terminal GST (pGEX-4T-1), kept; label: surface-attached array probe

B1: GTGCAC_negctrl_site149 (dsDNA)
DNA 1: GCAAAATATTTAAAATAATATATGTGTATATTTTTA
DNA 2: TAAAAATATACACATATATTATTTTAAATATTTTGC
binding signal: 6.73 ln median PBM intensity, better of two orientations

B2: GTGCAC_negctrl_site169 (dsDNA)
DNA 1: ATAAGAAGGAACATAAATATATCATAAAAAAAAAAA
DNA 2: TTTTTTTTTTTATGATATATTTATGTTCCTTCTTAT
binding signal: 6.73 ln median PBM intensity, better of two orientations

B3: GTGCAC_negctrl_site383 (dsDNA)
DNA 1: TTTTGTTTTGTTTTGTTTTGTTTTGTTTTATTTTAT
DNA 2: ATAAAATAAAACAAAACAAAACAAAACAAAACAAAA
binding signal: 6.74 ln median PBM intensity, better of two orientations

B4: GTGCAC_negctrl_site515 (dsDNA)
DNA 1: GATATGATGAGATTGATATTCATAAGAGGATTAATG
DNA 2: CATTAATCCTCTTATGAATATCAATCTCATCATATC
binding signal: 6.75 ln median PBM intensity, better of two orientations

B5: GTGCAC_negctrl_site12 (dsDNA)
DNA 1: AATAAAAAAATAAAAAAAAAAAAAAATAAAAAAAAA
DNA 2: TTTTTTTTTATTTTTTTTTTTTTTTATTTTTTTATT
binding signal: 6.76 ln median PBM intensity, better of two orientations

B6: GTGCAC_negctrl_site444 (dsDNA)
DNA 1: TTTTTCACATCTATAAATCATCTAATCAATATTTTT
DNA 2: AAAAATATTGATTAGATGATTTATAGATGTGAAAAA
binding signal: 6.76 ln median PBM intensity, better of two orientations

B7: GTGCAC_negctrl_site477 (dsDNA)
DNA 1: AAAAAAAATTTTCTTCTGTTGTATTTTTTATACGTT
DNA 2: AACGTATAAAAAATACAACAGAAGAAAATTTTTTTT
binding signal: 6.77 ln median PBM intensity, better of two orientations

B8: GTGCAC_negctrl_site686 (dsDNA)
DNA 1: TCTTATATGATATTTATTTATTTATTTATTTATTCA
DNA 2: TGAATAAATAAATAAATAAATAAATATCATATAAGA
binding signal: 6.77 ln median PBM intensity, better of two orientations

B9: GTGCAC_negctrl_site250 (dsDNA)
DNA 1: TTTTTTTTTTTATATACTGGAAATATATTTAATTTA
DNA 2: TAAATTAAATATATTTCCAGTATATAAAAAAAAAAA
binding signal: 6.78 ln median PBM intensity, better of two orientations

B10: GTGCAC_negctrl_site51 (dsDNA)
DNA 1: ATAAAAAATTTAAGTATTTTTTACAAACCTATAAAT
DNA 2: ATTTATAGGTTTGTAAAAAATACTTAAATTTTTTAT
binding signal: 6.78 ln median PBM intensity, better of two orientations

B11: GTGCAC_negctrl_site537 (dsDNA)
DNA 1: TGGTAACAGCATAGAAAATGGACAAACGAAATATAA
DNA 2: TTATATTTCGTTTGTCCATTTTCTATGCTGTTACCA
binding signal: 6.79 ln median PBM intensity, better of two orientations

B12: GTGCAC_negctrl_site320 (dsDNA)
DNA 1: TTTTCTAAAATATTCATAATAAATCAAAAAAAAAAA
DNA 2: TTTTTTTTTTTGATTTATTATGAATATTTTAGAAAA
binding signal: 6.79 ln median PBM intensity, better of two orientations

B13: GTGCAC_negctrl_site133 (dsDNA)
DNA 1: TCTTTTACAAAAGCTATAACATTCACCACATTATAA
DNA 2: TTATAATGTGGTGAATGTTATAGCTTTTGTAAAAGA
binding signal: 6.79 ln median PBM intensity, better of two orientations

B14: GTGCAC_negctrl_site46 (dsDNA)
DNA 1: TTGTAGGAATTTATTTTGACTGATAATTAATACGTT
DNA 2: AACGTATTAATTATCAGTCAAAATAAATTCCTACAA
binding signal: 6.8 ln median PBM intensity, better of two orientations

B15: GTGCAC_negctrl_site288 (dsDNA)
DNA 1: TATTATTCATAATTTATCTTTTAAATTAAATCACAA
DNA 2: TTGTGATTTAATTTAAAAGATAAATTATGAATAATA
binding signal: 6.81 ln median PBM intensity, better of two orientations

B16: GTGCAC_negctrl_site585 (dsDNA)
DNA 1: TTTTGATAGAAGTGTTCTAGGAATTCAACTGTAATA
DNA 2: TATTACAGTTGAATTCCTAGAACACTTCTATCAAAA
binding signal: 6.81 ln median PBM intensity, better of two orientations

B17: GTGCAC_negctrl_site407 (dsDNA)
DNA 1: AATGGAAAAAAAAAAATAAATACAAATAAATACAAA
DNA 2: TTTGTATTTATTTGTATTTATTTTTTTTTTTCCATT
binding signal: 6.81 ln median PBM intensity, better of two orientations

B18: GTGCAC_negctrl_site693 (dsDNA)
DNA 1: TGGACCAAACGACAAAAAAAAAGCAGAAAACAAAAA
DNA 2: TTTTTGTTTTCTGCTTTTTTTTTGTCGTTTGGTCCA
binding signal: 6.81 ln median PBM intensity, better of two orientations

B19: GTGCAC_negctrl_site130 (dsDNA)
DNA 1: TTGTATTAATAATTTTTTATATTATAGTTTATAATA
DNA 2: TATTATAAACTATAATATAAAAAATTATTAATACAA
binding signal: 6.82 ln median PBM intensity, better of two orientations

B20: GTGCAC_negctrl_site96 (dsDNA)
DNA 1: ATTTTTTTATAAAATTTTTATATAATTTATTATAAA
DNA 2: TTTATAATAAATTATATAAAAATTTTATAAAAAAAT
binding signal: 6.82 ln median PBM intensity, better of two orientations

B21: GTGCAC_negctrl_site324 (dsDNA)
DNA 1: ATATGTAAAACTTCAAAAAAATATATTTTATGACGA
DNA 2: TCGTCATAAAATATATTTTTTTGAAGTTTTACATAT
binding signal: 6.82 ln median PBM intensity, better of two orientations

B22: GTGCAC_negctrl_site299 (dsDNA)
DNA 1: AGAGAAAGAAGGGAGAAAAAATAAAATAAAATAAAA
DNA 2: TTTTATTTTATTTTATTTTTTCTCCCTTCTTTCTCT
binding signal: 6.83 ln median PBM intensity, better of two orientations

B23: GTGCAC_negctrl_site618 (dsDNA)
DNA 1: AAAAAAATTACATATCCATTTTAACATAATAAATAG
DNA 2: CTATTTATTATGTTAAAATGGATATGTAATTTTTTT
binding signal: 6.84 ln median PBM intensity, better of two orientations

B24: GTGCAC_negctrl_site265 (dsDNA)
DNA 1: TATTTTTTTTCTTTATTTATAACGCTCAATATATTC
DNA 2: GAATATATTGAGCGTTATAAATAAAGAAAAAAAATA
binding signal: 6.85 ln median PBM intensity, better of two orientations

B25: GTGCAC_negctrl_site581 (dsDNA)
DNA 1: AAAAAAAAATATATATAAAATTAAAAAATGTAATAT
DNA 2: ATATTACATTTTTTAATTTTATATATATTTTTTTTT
binding signal: 6.85 ln median PBM intensity, better of two orientations

B26: GTGCAC_negctrl_site445 (dsDNA)
DNA 1: TATGGTGTAATTTAGTGTATTATATTATTTTGGTTG
DNA 2: CAACCAAAATAATATAATACACTAAATTACACCATA
binding signal: 6.86 ln median PBM intensity, better of two orientations

B27: GTGCAC_negctrl_site184 (dsDNA)
DNA 1: TATTCTATATTTCTATTTAGAAAACATCCCAGTGTG
DNA 2: CACACTGGGATGTTTTCTAAATAGAAATATAGAATA
binding signal: 6.86 ln median PBM intensity, better of two orientations

B28: GTGCAC_negctrl_site11 (dsDNA)
DNA 1: TCTTATAACAAAAAAAAATAAAAAATAAAACTATAT
DNA 2: ATATAGTTTTATTTTTTATTTTTTTTTGTTATAAGA
binding signal: 6.87 ln median PBM intensity, better of two orientations

B29: GTGCAC_negctrl_site315 (dsDNA)
DNA 1: ATATACTATTAACCACATATGTGTGTTAATTTATAT
DNA 2: ATATAAATTAACACACATATGTGGTTAATAGTATAT
binding signal: 6.87 ln median PBM intensity, better of two orientations

B30: GTGCAC_negctrl_site95 (dsDNA)
DNA 1: GCAGTCAAAAAGGAAAATATAAAAAAAGTATATGTG
DNA 2: CACATATACTTTTTTTATATTTTCCTTTTTGACTGC
binding signal: 6.87 ln median PBM intensity, better of two orientations

B31: GTGCAC_negctrl_site392 (dsDNA)
DNA 1: TTTATTATTATATTATTTTAATTTTTCTTTAGTACA
DNA 2: TGTACTAAAGAAAAATTAAAATAATATAATAATAAA
binding signal: 6.89 ln median PBM intensity, better of two orientations

B32: GTGCAC_negctrl_site708 (dsDNA)
DNA 1: TTCTATTCAAATGCAAAATTATTAAATAAAAAATAA
DNA 2: TTATTTTTTATTTAATAATTTTGCATTTGAATAGAA
binding signal: 6.9 ln median PBM intensity, better of two orientations

— PMC11417369, “DNA sequence and chromatin differentiate sequence-specific transcription factor binding in the human malaria parasite Plasmodium falciparum”
